Values of other authors in paper PMC11449013.
Read-outs that look alike come from different tables or passages of the source.

Molecular target: His128 (UniProt position 179, FICPCHGSQYN)

Q: For “Cytochrome b6f complex Rieske iron-sulfur protein (ISP, PetC) (Spinacia oleracea (residue numbering; the article does not state the species in which the quoted values were measured))”, which pKa (2Fe2S cluster oxidised) is on record?
A: ∼6.2

Q: What about the pKa (2Fe2S cluster reduced) of the same substance?
A: ∼8
